The values below come from PMC4764579, “Structural insights into the mechanism of activation of the TRPV1 channel by a membrane-bound tarantula toxin” (eLife, 2016).

This assay deals with rat TRPV1, full-length channel expressed in HEK293 cells (rat) (UniProt O35433).
Sequence of rat TRPV1, full-length channel expressed in HEK293 cells (rat) (O35433 whole entry): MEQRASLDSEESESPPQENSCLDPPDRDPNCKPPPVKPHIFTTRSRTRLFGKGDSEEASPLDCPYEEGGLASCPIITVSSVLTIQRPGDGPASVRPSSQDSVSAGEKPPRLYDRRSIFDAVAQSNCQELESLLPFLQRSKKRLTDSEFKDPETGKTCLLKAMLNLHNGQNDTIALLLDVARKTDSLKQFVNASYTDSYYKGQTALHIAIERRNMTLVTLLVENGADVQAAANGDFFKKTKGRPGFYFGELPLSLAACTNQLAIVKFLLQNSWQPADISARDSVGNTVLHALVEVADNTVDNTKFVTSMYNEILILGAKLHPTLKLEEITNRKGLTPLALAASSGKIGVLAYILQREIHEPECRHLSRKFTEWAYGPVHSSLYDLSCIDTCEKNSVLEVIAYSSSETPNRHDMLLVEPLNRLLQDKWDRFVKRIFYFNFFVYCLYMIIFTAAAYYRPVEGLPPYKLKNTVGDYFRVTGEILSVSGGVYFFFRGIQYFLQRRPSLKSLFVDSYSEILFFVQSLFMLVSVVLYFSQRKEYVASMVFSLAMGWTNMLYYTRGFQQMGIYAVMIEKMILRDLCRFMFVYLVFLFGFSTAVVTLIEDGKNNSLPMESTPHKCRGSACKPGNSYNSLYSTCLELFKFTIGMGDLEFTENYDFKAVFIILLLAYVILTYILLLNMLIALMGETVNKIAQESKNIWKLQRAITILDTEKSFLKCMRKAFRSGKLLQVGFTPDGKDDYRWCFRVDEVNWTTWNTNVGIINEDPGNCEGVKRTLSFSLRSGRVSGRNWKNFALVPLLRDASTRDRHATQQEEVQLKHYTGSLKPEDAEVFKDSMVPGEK

B1: bivalent K2 (K2K2) (protein)
chain: NCAKEGEVCGWGSKCCHGLDCPLAFIPYCEKYRPYVPVTTNCAKEGEVCGWGSKCCHGLDCPLAFIPYCEK
B1 came in with a fractional dissociation 1 min after toxin removal (current 1 min after removal divided by steady-state current with toxin), whole-cell patch clamp at +120 mV, TRPV1 in HEK cells of 0.96.

B2: bivalent K1 (K1K1) (protein)
chain: GDCAKEGEVCSWGKKCCDLDNFYCPMEFIPHCKKYKPYVPVTTDCAKEGEVCSWGKKCCDLDNFYCPMEFIPHCKKYK
On to B2, for which the fractional dissociation 1 min after toxin removal (current 1 min after removal divided by steady-state current with toxin), whole-cell patch clamp at +120 mV, TRPV1 in HEK cells was 0.3.
